# Measurements from patent US20200048358A1 (ALLIGATOR BIOSCIENCE, published 2020).
# T1: chimeric OX40 construct 1546: Human OX40 with mouse domains 2A, 2B and module 3 (aa 66-126) (human; mouse, UniProt P47741 62-124)
# T1 construct: domain: 2A, 2B and module 3; On 293-F cells; limits derived as for 1544
# T1 sequence: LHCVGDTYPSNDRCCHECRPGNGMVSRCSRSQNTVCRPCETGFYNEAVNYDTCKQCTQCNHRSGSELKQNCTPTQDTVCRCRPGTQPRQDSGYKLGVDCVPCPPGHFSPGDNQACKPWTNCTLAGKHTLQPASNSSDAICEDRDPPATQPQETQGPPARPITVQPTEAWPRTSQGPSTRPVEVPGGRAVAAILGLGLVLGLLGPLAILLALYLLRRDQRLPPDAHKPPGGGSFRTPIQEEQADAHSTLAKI
# T2: chimeric OX40 construct 1547: Human OX40 with mouse domain 2B, module 3 and domain 4A (aa 83-141) (human; mouse, UniProt P47741 79-139)
# T2 construct: domain: 2B, module 3 and domain 4A; On 293-F cells; limits derived as for 1544
# T2 sequence: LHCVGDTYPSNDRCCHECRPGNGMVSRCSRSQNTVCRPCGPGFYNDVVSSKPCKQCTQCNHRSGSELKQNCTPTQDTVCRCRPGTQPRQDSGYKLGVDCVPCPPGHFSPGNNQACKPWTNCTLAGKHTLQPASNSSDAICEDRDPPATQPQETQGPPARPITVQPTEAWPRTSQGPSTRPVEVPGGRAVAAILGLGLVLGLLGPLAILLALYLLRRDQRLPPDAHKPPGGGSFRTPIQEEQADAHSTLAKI
# T3: construct 84: Construct containing the full length OX40 sequence (human, UniProt P43489 29-277)
# T3 construct: On transiently transfected FreeStyle 293-F cells; also called human OX40 (full length, on 293-F cells)
# T3 sequence: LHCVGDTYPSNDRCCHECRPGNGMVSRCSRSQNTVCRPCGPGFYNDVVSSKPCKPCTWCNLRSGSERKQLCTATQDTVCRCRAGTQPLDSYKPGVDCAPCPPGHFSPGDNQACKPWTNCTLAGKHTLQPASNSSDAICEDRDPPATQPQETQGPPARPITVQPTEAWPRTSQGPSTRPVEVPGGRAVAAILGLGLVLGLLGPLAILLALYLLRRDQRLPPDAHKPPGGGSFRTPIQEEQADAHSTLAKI
# T4: chimeric OX40 construct 1548: Human OX40 with mouse module 3 and domains 4A and 4B (aa 108-167) (human; mouse, UniProt P47741 104-165)
# T4 construct: domain: module 3 and domains 4A and 4B; On 293-F cells; limits derived as for 1544
# T4 sequence: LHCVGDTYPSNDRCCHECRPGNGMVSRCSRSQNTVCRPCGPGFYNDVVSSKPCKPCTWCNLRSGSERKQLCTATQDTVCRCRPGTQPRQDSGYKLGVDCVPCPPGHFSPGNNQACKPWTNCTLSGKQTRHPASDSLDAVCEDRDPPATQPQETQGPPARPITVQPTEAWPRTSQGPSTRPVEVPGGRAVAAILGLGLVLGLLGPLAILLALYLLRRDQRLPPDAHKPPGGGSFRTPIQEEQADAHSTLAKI
# T5: chimeric OX40 construct 1545: Human OX40 with mouse domains 1B, 2A and 2B (aa 43-107) (human; mouse, UniProt P47741 39-103)
# T5 construct: domain: 1B, 2A and 2B; On 293-F cells; limits derived as for 1544
# T5 sequence: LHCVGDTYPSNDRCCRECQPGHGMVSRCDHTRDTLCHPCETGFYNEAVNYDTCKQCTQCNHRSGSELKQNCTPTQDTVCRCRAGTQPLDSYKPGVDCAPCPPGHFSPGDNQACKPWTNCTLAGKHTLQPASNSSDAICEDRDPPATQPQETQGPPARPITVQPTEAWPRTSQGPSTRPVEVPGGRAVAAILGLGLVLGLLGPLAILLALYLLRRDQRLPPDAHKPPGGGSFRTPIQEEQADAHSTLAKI
# T6: chimeric OX40 construct 1544: Human OX40 with mouse domains 1A, 1B and 2A (aa 30-81) (human; mouse, UniProt P47741 26-77)
# T6 construct: domain: 1A, 1B and 2A; On transiently transfected FreeStyle 293-F cells
# T6 sequence: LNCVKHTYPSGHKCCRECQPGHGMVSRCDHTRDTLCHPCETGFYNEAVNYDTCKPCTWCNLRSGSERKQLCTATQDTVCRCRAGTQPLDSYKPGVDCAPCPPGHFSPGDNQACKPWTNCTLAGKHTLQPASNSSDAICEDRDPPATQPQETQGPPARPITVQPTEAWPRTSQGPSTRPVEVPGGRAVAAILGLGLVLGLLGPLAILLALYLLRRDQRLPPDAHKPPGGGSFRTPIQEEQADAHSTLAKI
# How the values were obtained:
# CTLA-4 (BMS, Orencia) = CTLA-4 (BMS, Orencia) (human, UniProt P16410 38-152); assay: cell-based or functional assay
# CTLA-4 (BMS, Orencia), sequence (P16410 38-152 limits assumed): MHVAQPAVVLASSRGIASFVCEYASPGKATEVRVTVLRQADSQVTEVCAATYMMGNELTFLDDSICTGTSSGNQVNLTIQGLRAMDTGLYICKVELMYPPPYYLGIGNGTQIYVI
# [1] = molecular target: T1, chimeric OX40 construct 1546: Human …; assay: flow cytometry, transfected 293-F cells
# Description: (§1) The mouse/human chimeras were transiently transfected into FreeStyle 293-F cells (Invitrogen), incubated 48 hours in FreeStyle 293 expression medium (Invitrogen) 37 C, 8% CO₂, 135 rpm. The transfected cells were incubated with human OX40 antibodies, human OX40L (hOX40L, RnD Systems), mouse OX40L (mOX40L, RnD Systems) and controls for 30 min 4° C. and then detected with a-huIgG-PE (Jackson lmmunoresearch) 30 min 4° C. Cells were analyzed with FACS Verse (BD Biosciences). Binding to the different chimeric constructs were calculated as relative (mean fluorescence intensity) MFI compared to the binding of the isotype control.
# [2] = molecular target: T2, chimeric OX40 construct 1547: Human …; assay: flow cytometry, transfected 293-F cells
# Description: as §1
# [3] = molecular target: T3, construct 84: Construct containing the …; assay: flow cytometry, transfected 293-F cells
# Description: as §1
# [4] = molecular target: T4, chimeric OX40 construct 1548: Human …; assay: flow cytometry, transfected 293-F cells
# Description: as §1
# [5] = molecular target: T5, chimeric OX40 construct 1545: Human …; assay: flow cytometry, transfected 293-F cells
# Description: as §1
# [6] = molecular target: T6, chimeric OX40 construct 1544: Human …; assay: flow cytometry, transfected 293-F cells
# Description: as §1
# [7] = molecular target: T3, construct 84: Construct containing the …; assay: flow cytometry on human/mouse OX40 chimeras
# Description: as §1
Binder,"Mean IL-2 level (pg/ml) induced at 1.5 nM bispecific antibody or control (CTLA-4 (BMS, Orencia)) [pg/mL]",relative MFI compared to isotype control [1],relative MFI compared to isotype control [2],relative MFI compared to isotype control [3],relative MFI compared to isotype control [4],relative MFI compared to isotype control [5],relative MFI compared to isotype control [6],binding result [7]
"bispecific molecule 1526/1585 (bispecific antibody, human IgG1, kappa) heavy: not shown light: DIQMTQSPSSLSASVGDRVTITCRASQSISSYLNWYQQKPGKAPKLLIYAASSLQSGVPSRFSGSGSGTDFTLTISSLQPEDFATYYCQQYGSDSLLTFGQGTKLEIKRTVAAPSVFIFPPSDEQLKSGTASVVCLLNNFYPREAKVQWKVDNALQSGNSQESVTEQDSKDSTYSLSSTLTLSKADYEKHKVYACEVTHQGLSSPVTKSFNRGECSGGGGSGGGGSAPLKIQAYFNETADLPCQFANSQNLSLSELVVFWQDQENLVLNEVYLGKERFDSVDSKYMGRTSFDSDSWTLRLHNLQIKDKGRYQCIIHHKKPTGMINIHQMNSELSVLA",3200,–,–,–,–,–,–,–
"anti-OX40 antibody 1482/1483 (antibody, V domains shown, Tested as IgG) VH: EVQLLESGGGLVQPGGSLRLSCAASGFTFSSYAMSWVRQAPGKGLEWVSYISYYSGYTYYADSVKGRFTISRDNSKNTLYLQMNSLRAEDTAVYYCARGYGYLDYWGQGTLVTVSS VL: DIQMTQSPSSLSASVGDRVTITCRASQSISSYLNWYQQKPGKAPKLLIYAASSLQSGVPSRFSGSGSGTDFTLTISSLQPEDFATYYCQQYGSLLTFGQGTKLEIK",–,0.9,1,24.9,1.1,44.4,8.4,–
"human OX40L (hOX40L, RnD Systems) (ligand, UniProt P23510 51-183, looked up, also called human OX40 ligand) QVSHRYPRIQSIKVQFTEYKKEKGFILTSQKEDEIMKVQNNSVIINCDGFYLISLKGYFSQEVNISLHYQKDEEPLFQLKKVRSVNSLMVASLTYKDKVYLNVTTDNTSLDDFHVNGGELILIHQNPGEFCVL",–,–,–,–,–,–,–,binds
"anti-OX40 antibody 1524/1525 (antibody, V domains shown, Tested as IgG) VH: EVQLLESGGGLVQPGGSLRLSCAASGFTFGSYYMGWVRQAPGKGLEWVSSIGSYYGYTYYADSVKGRFTISRDNSKNTLYLQMNSLRAEDTAVYYCARHDYGALDYWGQGTLVTVSS VL: DIQMTQSPSSLSASVGDRVTITCRASQSISSYLNWYQQKPGKAPKLLIYAASSLQSGVPSRFSGSGSGTDFTLTISSLQPEDFATYYCQQYGPSGLFTFGQGTKLEIK",–,0.9,1,31.4,15.4,0.9,1.5,–
"anti-OX40 antibody 1526/1527 (antibody, V domains shown, Tested as IgG) VH: EVQLLESGGGLVQPGGSLRLSCAASGFTFSGYSMYWVRQAPGKGLEWVSGIGYSGYGTYYADSVKGRFTISRDNSKNTLYLQMNSLRAEDTAVYYCARYYFHDYAAYSLDYWGQGTLVTVSS VL: DIQMTQSPSSLSASVGDRVTITCRASQSISSYLNWYQQKPGKAPKLLIYAASSLQSGVPSRFSGSGSGTDFTLTISSLQPEDFATYYCQQYGSDSLLTFGQGTKLEIK",–,0.9,1,21.4,12.7,1.3,1.1,–
"anti-OX40 antibody 1168/1135 (antibody, V domains shown, Tested as IgG) VH: EVQLLESGGGLVQPGGSLRLSCAASGFTFSGSSMSWVRQAPGKGLEWVSSISYYGGYTYYADSVKGRFTISRDNSKNTLYLQMNSLRAEDTAVYYCARYFPHYYFDYWGQGTLVTVSS VL: not shown",–,0.9,1,29.6,1,46.6,13.2,–
"anti-OX40 antibody 1542/1135 (antibody, V domains shown, Tested as IgG) VH: EVQLLESGGGLVQPGGSLRLSCAASGFTFGSSSMYWVRQAPGKGLEWVSGIGYYSYSTSYADSVKGRFTISRDNSKNTLYLQMNSLRAEDTAVYYCARGYPHHYFDYWGQGTLVTVSS VL: not shown",–,0.9,1,29.4,1.2,40.2,7.1,–
